From US9809808B2, “Antimicrobial agents” (KATHOLIEKE UNIVERSITEIT LEUVEN K.U. LEUVEN R&D, priority 2008, dated 2017)
Residue numbers refer to the chain shown, from its start. Read-outs that look alike come from different tables or passages of the source.

Legend:
Escherichia coli WK6 [1] = assay: Antibacterial activity of P2gp09 and PKP2gp09 with and without EDTA (30 minutes, colony count); assay type: cell-based; settings: for relative inactivation in logarithmic units (log10N0/Ni): 30 minutes
Protocol: To determine the anti-Gram-negative spectrum of the PK2gp09 endolysin according to SEQ ID NO: 57, a combination of 1.315 μM PK2gp09 endolysin and 0,5 mM EDTA was tested on the clinical P. aeruginosa strains PAO1p and Br667 and on Escherichia coli WK6 (see Table 9). Exponential growing bacterial cells (OD600 nm of 0.6) were 100-fold diluted to a final density of about 10^6/ml of each strain was incubated for 30 minutes at room temperature without shaking with unmodified endolysin P2gp09 (SEQ ID NO: 9) and modified endolysin PKP2gp09 (SEQ ID NO: 57) each in combination without and with 0.5 mM EDTA. […] As a control each strain was also incubated for 30 minutes with 0.5 mM EDTA (in same buffer as outlined above) but no endolysin. After incubation cell suspensions were diluted three times (respectively 10^5-10^4-10^3 cells/ml) and 100 μl of each dilution was plated out on LB-medium.

[2] = tested on: Salmonella typhimurium LT2; assay type: cell-based; settings: 0.5 mM EDTA, no endolysin, 30 minutes
P. aeruginosa Br667 [3] = assay type: cell-based, Pseudomonas aeruginosa; settings: 0.5 mM EDTA, no endolysin, 30 minutes
[4] = tested on: Salmonella typhimurium LT2; assay: Antibacterial activity of PSP3gp10 and PKPSP3gp10 with and without EDTA (30 minutes, colony count); assay type: cell-based
Protocol: (§1) To determine the anti-Gram-negative spectrum of the PKPSP3gp10 endolysin according to SEQ ID NO: 53, a combination of 1.315 μM PKPSP3gp10 endolysin and 0.5 mM EDTA was tested on the clinical P. aeruginosa strains PAO1p and Br667, Escherichia coli WK6, and Salmonella typhimurium (see Table 5). Exponential growing bacterial cells (OD600 nm of 0.6) were 100-fold diluted to a final density of about 10^6/ml of each strain were incubated for 30 minutes at room temperature without shaking with unmodified endolysin […] (SEQ ID NO: 8) and modified endolysin PKPSP3gp10 (SEQ ID NO: 53) each in combination without and with 0.5 mM EDTA. […] As a control each strain was also incubated for 30 minutes with 0.5 mM EDTA (in same buffer as outlined above) but no endolysin.
(§2) After incubation cell suspensions were diluted three times (respectively 10^5-10^4-10^3 cells/ml) and 100 μl of each dilution was plated out on LB-medium.

Escherichia coli WK6 [5] = assay: as above; assay type: cell-based
Protocol: as §1, §2

P. putida G1 [6] = assay: Antibacterial activity of P2gp09 and PKP2gp09 with and without EDTA (30 minutes, colony count); assay type: cell-based, Pseudomonas putida; settings: for relative inactivation in logarithmic units (log10N0/Ni): 30 minutes
P. aeruginosa Br667 [7] = assay: as above; assay type: cell-based, Pseudomonas aeruginosa; settings: for relative inactivation in logarithmic units (log10N0/Ni): 30 minutes
Escherichia coli WK6 [8] = assay type: cell-based; settings: 0.5 mM EDTA, no endolysin, 30 minutes
P. aeruginosa Br667 [9] = assay: Antibacterial activity of PSP3gp10 and PKPSP3gp10 with and without EDTA (30 minutes, colony count); assay type: cell-based, Pseudomonas aeruginosa
P. putida G1 [10] = assay type: cell-based, Pseudomonas putida; settings: 0.5 mM EDTA, no endolysin, 30 minutes
[11] = tested on: Pseudomonas aeruginosa PAO1p cells; assay: Effect of different EDTA and endolysin concentrations on antibacterial activity of OBPgpLYS and PKOBPgpLYS; assay type: cell-based; settings: no endolysin
Protocol: To determine the influence of EDTA on the antibacterial activity of unmodified and modified endolysins the antibacterial activity of the unmodified OBPgpLYS endolysin (SEQ ID NO: 7) and the PKOBPgpLYS endolysin (SEQ ID NO: 61) was tested on Pseudomonas aeruginosa PAO1p cells ([…] et al. J Clin Microbiol., 41(3):1192-1202 (2003)) using different concentrations of EDTA and endolysins. Exponential growing bacterial cells (OD600 nm of 0.6) were 100-fold diluted to a final density of about 10^6/ml and incubated for 30 minutes at room temperature without shaking with unmodified endolysin OBPgpLYS (SEQ ID NO: 7) and modified endolysin PKOBPgpLYS (SEQ ID NO: 61). […] Thereby, the following different EDTA concentrations were used: 0 mM, 0.05 mM, 0.5 mM and 10 mM. […] After incubation cell suspensions were diluted three times (respectively 10^5-10^4-10^3 cells/ml) and 100 μl of each dilution was plated out on LB-medium. […] All samples were replicated in threefold. Averages+/-standard deviations are represented.

[12] = tested on: Burkholderia pseudomallei; assay type: cell-based; settings: for relative inactivation in logarithmic units (log10N0/Ni): 30 minutes
[13] = 1.315 μM endolysin + 0.5 mM EDTA

O=C([O-])CN(CCN(CC(=O)[O-])CC(=O)O)CC(=O)O.[Na+].[Na+] [EDTA, reference compound]
relative inactivation in logarithmic units (log10N0/Ni) (Escherichia coli WK6 [1]; 0.5 mM EDTA, no endolysin): 0.153 logarithmic units
relative inactivation in logarithmic units (log10N0/Ni) [2]: 0.054 +/− 0.048 logarithmic units
relative inactivation in logarithmic units (log10N0/Ni) (P. aeruginosa Br667 [3]): 0.031 +/− 0.023 logarithmic units
relative inactivation in logarithmic units (log10N0/Ni) ([4]; 0.5 mM EDTA, no endolysin): 0.104 +/− 0.049 logarithmic units
relative inactivation in logarithmic units (log10N0/Ni) (Escherichia coli WK6 [5]; 0.5 mM EDTA, no endolysin): 0.393 +/− 0.035 logarithmic units
relative inactivation in logarithmic units (log10N0/Ni) (P. putida G1 [6]; 0.5 mM EDTA, no endolysin): 0.072 logarithmic units
relative inactivation in logarithmic units (log10N0/Ni) (P. aeruginosa Br667 [7]; 0.5 mM EDTA, no endolysin): 0.003 logarithmic units
relative inactivation in logarithmic units (log10N0/Ni) (Escherichia coli WK6 [8]): 0.592 +/− 0.113 logarithmic units
relative inactivation in logarithmic units (log10N0/Ni) (P. aeruginosa Br667 [9]; 0.5 mM EDTA, no endolysin): 0.223 +/− 0.038 logarithmic units
relative inactivation in logarithmic units (log10N0/Ni) (P. putida G1 [10]): 0.412 +/− 0.055 logarithmic units
relative inactivation in logarithmic units (log10N0/Ni) ([11]; 0.05 mM EDTA-Na2, 30 minutes): 0.028 +/− 0.008 log units
relative inactivation in logarithmic units (log10N0/Ni) ([11]; 0.5 mM EDTA-Na2, 30 minutes): 0.130 +/− 0.023 log units
relative inactivation in logarithmic units (log10N0/Ni) ([11]; 10 mM EDTA-Na2, 30 minutes): 1.827 +/− 0.052 log units

B1: PSP3gp10: SEQ ID NO: 8: unmodified globular endolysin with 165 amino acid residues originating from Salmonella typhimurium phage PSP3 (protein)
chain: MPVINTHQNIAAFLDMLAYSEGTANHPLTKNRGYDVIVTGFDGSPEIFTDYSDHPFAHGRPPKVFNRRGEKSTASGRYQQLYIFWPHYKKQLALPDFSPLSQDKLAIQLIRERGAIDDIRAGRIERAVSRCRNIWASLPGAGYGQREHSLEKLVTVWRTAGGVMA
modifications: PSP3gp10
relative inactivation in logarithmic units (log10N0/Ni) [4, 13]: 0.690 +/− 0.036 logarithmic units
relative inactivation in logarithmic units (log10N0/Ni) ([4]; 1.315 μM endolysin, no EDTA): 0.283 +/− 0.038 logarithmic units
relative inactivation in logarithmic units (log10N0/Ni) (Escherichia coli WK6 [5]; [13]): 0.387 +/− 0.014 logarithmic units
relative inactivation in logarithmic units (log10N0/Ni) (Escherichia coli WK6 [5]; 1.315 μM endolysin, no EDTA): 0.190 +/− 0.029 logarithmic units
relative inactivation in logarithmic units (log10N0/Ni) (P. aeruginosa Br667 [9]; [13]): 0.571 +/− 0.035 logarithmic units
relative inactivation in logarithmic units (log10N0/Ni) (P. aeruginosa Br667 [9]; 1.315 μM endolysin, no EDTA): 0.375 +/− 0.056 logarithmic units

B2: PKPSP3gp10: SEQ ID NO: 53: PSP3gp10 (SEQ ID NO: 8) with N-terminal peptide stretch KRKKRKKRK (SEQ ID NO: 11) (protein)
chain: MGSKRKKRKKRKPVINTHQNIAAFLDMLAYSEGTANHPLTKNRGYDVIVTGFDGSPEIFTDYSDHPFAHGRPPKVFNRRGEKSTASGRYQQLYIFWPHYKKQLALPDFSPLSQDKLAIQLIRERGAIDDIRAGRIERAVSRCRNIWASLPGAGYGQREHSLEKLVTVWRTAGGVMA
modifications: PKPSP3gp10
relative inactivation in logarithmic units (log10N0/Ni) [4, 13]: 0.850 +/− 0.032 logarithmic units
relative inactivation in logarithmic units (log10N0/Ni) ([4]; 1.315 μM endolysin, no EDTA): 0.327 +/− 0.057 logarithmic units
relative inactivation in logarithmic units (log10N0/Ni) (Escherichia coli WK6 [5]; [13]): 0.584 +/− 0.024 logarithmic units
relative inactivation in logarithmic units (log10N0/Ni) (Escherichia coli WK6 [5]; 1.315 μM endolysin, no EDTA): 0.205 +/− 0.088 logarithmic units
relative inactivation in logarithmic units (log10N0/Ni) (P. aeruginosa Br667 [9]; [13]): 0.891 +/− 0.118 logarithmic units
relative inactivation in logarithmic units (log10N0/Ni) (P. aeruginosa Br667 [9]; 1.315 μM endolysin, no EDTA): 0.353 +/− 0.086 logarithmic units

B3: P2gp09: SEQ ID NO: 9: unmodified globular endolysin of 165 amino acid residues originating from Escherichia coli phage P2 (protein)
chain: B1 chain with Y19V, F41L, S44K, P62A, I83L, K89R, K104R, I116L, V128I, M164P
modifications: P2gp09
relative inactivation in logarithmic units (log10N0/Ni) (Escherichia coli WK6 [1]; [13]): 0.784 logarithmic units
relative inactivation in logarithmic units (log10N0/Ni) (Escherichia coli WK6 [1]; 1.315 μM endolysin, no EDTA): 0.751 logarithmic units
relative inactivation in logarithmic units (log10N0/Ni) (P. putida G1 [6]; [13]): 3.919 logarithmic units
relative inactivation in logarithmic units (log10N0/Ni) (P. putida G1 [6]; 1.315 μM endolysin, no EDTA): 0.419 logarithmic units
relative inactivation in logarithmic units (log10N0/Ni) (P. aeruginosa Br667 [7]; [13]): 0.582 logarithmic units
relative inactivation in logarithmic units (log10N0/Ni) (P. aeruginosa Br667 [7]; 1.315 μM endolysin, no EDTA): 0.246 logarithmic units
relative inactivation in logarithmic units (log10N0/Ni) [12, 13]: 3.8909 logarithmic units
relative inactivation in logarithmic units (log10N0/Ni) ([12]; 1.315 μM endolysin, no EDTA): 0.769 logarithmic units

B4: PKP2gp09: SEQ ID NO: 57: P2gp09 (SEQ ID NO: 9) with N-terminal peptide stretch KRKKRKKRK (SEQ ID NO: 11) (protein)
chain: B2 chain with Y30V, F52L, S55K, P73A, I94L, K100R, K115R, I127L, V139I, M175P
modifications: PKP2gp09
Δ, difference of activity between P2gp09 and PKP2gp09 samples (Escherichia coli WK6 [1]; 1.315 μM + 0.5 mM EDTA): 0.749 logarithmic units
relative inactivation in logarithmic units (log10N0/Ni) (Escherichia coli WK6 [1]; [13]): 1.545 +/− 0.102 logarithmic units
relative inactivation in logarithmic units (log10N0/Ni) (Escherichia coli WK6 [1]; 1.315 μM endolysin, no EDTA): 1.104 +/− 0.039 logarithmic units
Δ, difference of activity between P2gp09 and PKP2gp09 samples (Escherichia coli WK6 [1]; 1.315 μM, no EDTA): 0.353 logarithmic units
Δ, difference of activity between P2gp09 and PKP2gp09 samples (P. putida G1 [6]; 1.315 μM + 0.5 mM EDTA): >0.467 logarithmic units
relative inactivation in logarithmic units (log10N0/Ni) (P. putida G1 [6]; [13]): >4,386 logarithmic units
relative inactivation in logarithmic units (log10N0/Ni) (P. putida G1 [6]; 1.315 μM endolysin, no EDTA): 1.014 +/− 0.139 logarithmic units
Δ, difference of activity between P2gp09 and PKP2gp09 samples (P. putida G1 [6]; 1.315 μM, no EDTA): 0.595 logarithmic units
Δ, difference of activity between P2gp09 and PKP2gp09 samples (P. aeruginosa Br667 [7]; 1.315 μM + 0.5 mM EDTA): 0.370 logarithmic units
relative inactivation in logarithmic units (log10N0/Ni) (P. aeruginosa Br667 [7]; [13]): 0.952 +/− 0.213 logarithmic units
relative inactivation in logarithmic units (log10N0/Ni) (P. aeruginosa Br667 [7]; 1.315 μM endolysin, no EDTA): 0.300 +/− 0.062 logarithmic units
Δ, difference of activity between P2gp09 and PKP2gp09 samples (P. aeruginosa Br667 [7]; 1.315 μM, no EDTA): 0.054 logarithmic units
Δ, difference of activity between P2gp09 and PKP2gp09 samples ([12]; 1.315 μM + 0.5 mM EDTA): 0.365 logarithmic units
relative inactivation in logarithmic units (log10N0/Ni) [12, 13]: 4.255 +/− 0.001 logarithmic units
relative inactivation in logarithmic units (log10N0/Ni) ([12]; 1.315 μM endolysin, no EDTA): 1.163 +/− 0.073 logarithmic units
Δ, difference of activity between P2gp09 and PKP2gp09 samples ([12]; 1.315 μM, no EDTA): 0.394 logarithmic units
